Assay results taken from patent US20230111212A1, “MUSCLE TARGETING COMPLEXES AND USES THEREOF FOR TREATING DYSTROPHINOPATHIES” (Dyne Therapeutics, Inc., priority 2020, published 2023).

Columns and labels:
[1] = target: human transferrin receptor 1 (human) (UniProt P02786); experiment: Carterra LSA at 25C, IgG captured on anti-IgG lawn, hTfR1 injected, 1:1 Langmuir fit
[2] = target: human transferrin receptor 2 (human) (UniProt Q9UP52); experiment: ELISA on human TfR2, RFU
human transferrin receptor 2 (human), sequence (Q9UP52 105-801 limits assumed): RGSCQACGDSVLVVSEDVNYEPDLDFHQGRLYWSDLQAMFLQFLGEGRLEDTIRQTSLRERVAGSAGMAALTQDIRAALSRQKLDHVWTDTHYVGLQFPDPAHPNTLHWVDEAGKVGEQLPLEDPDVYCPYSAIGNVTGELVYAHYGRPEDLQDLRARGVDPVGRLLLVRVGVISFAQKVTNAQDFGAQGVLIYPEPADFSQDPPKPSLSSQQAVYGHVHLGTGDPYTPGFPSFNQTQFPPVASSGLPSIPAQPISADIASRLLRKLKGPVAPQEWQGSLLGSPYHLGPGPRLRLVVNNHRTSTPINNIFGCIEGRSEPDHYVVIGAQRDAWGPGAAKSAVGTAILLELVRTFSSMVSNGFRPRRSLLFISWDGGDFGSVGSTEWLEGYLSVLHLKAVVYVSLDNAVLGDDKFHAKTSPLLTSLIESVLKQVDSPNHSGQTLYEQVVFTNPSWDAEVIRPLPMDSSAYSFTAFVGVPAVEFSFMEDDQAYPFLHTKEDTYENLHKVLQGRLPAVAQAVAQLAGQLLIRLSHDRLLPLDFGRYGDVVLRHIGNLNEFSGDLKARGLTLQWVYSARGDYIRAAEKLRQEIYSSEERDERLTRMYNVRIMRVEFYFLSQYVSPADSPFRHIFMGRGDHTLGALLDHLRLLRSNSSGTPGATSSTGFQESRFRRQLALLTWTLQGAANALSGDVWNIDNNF

human transferrin receptor 1 (human), sequence (P02786 89-760 limits assumed): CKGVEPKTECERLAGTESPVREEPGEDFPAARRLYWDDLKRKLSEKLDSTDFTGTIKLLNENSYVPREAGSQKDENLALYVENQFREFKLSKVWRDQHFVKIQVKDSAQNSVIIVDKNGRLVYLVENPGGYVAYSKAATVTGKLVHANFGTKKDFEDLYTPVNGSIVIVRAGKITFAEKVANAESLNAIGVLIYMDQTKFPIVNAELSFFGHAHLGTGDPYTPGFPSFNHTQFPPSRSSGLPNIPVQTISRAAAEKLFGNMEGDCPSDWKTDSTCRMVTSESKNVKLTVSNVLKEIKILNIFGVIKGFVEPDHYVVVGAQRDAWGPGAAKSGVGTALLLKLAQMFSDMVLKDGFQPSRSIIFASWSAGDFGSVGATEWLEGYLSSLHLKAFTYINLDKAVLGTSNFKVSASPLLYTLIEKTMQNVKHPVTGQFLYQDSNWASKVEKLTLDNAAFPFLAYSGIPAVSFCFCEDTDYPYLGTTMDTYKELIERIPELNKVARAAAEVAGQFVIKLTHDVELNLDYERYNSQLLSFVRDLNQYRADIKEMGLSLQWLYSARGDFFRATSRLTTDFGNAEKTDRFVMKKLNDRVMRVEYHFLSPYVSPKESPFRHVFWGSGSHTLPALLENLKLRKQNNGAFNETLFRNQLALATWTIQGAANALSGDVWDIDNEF

| Substance | Kd [1] [nM] | kon [1] [M⁻¹ s⁻¹] | EC50 (read off the curve) [2] [nM] |
| --- | --- | --- | --- |
| OKT9 mIgG (antibody) | 0.536 | 774000 | – |
| TfR2 Monoclonal Antibody (OTI1B1) | – | – | 2 |
